Source: publication PMC3967969 (Molecular Biology of the Cell, 2014)

Biological target: T1, MEI-2, wild type (from MBP-TEV-MEI-2) (C. elegans, UniProt O44740 1-280)
T1 sequence (looked up): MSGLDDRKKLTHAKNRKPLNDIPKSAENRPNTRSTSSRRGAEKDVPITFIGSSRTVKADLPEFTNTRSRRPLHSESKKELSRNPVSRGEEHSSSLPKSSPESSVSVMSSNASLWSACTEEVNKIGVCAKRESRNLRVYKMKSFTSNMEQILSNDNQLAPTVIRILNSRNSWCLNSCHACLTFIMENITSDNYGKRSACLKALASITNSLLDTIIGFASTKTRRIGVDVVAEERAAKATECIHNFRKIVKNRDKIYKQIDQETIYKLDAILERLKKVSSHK
Assay: pull-down

B1: MEI-1 (short isoform), untagged, wild type (enzyme, C. elegans, UniProt P34808 1-472, looked up)
chain: MNGDVQSVIRGYLERAQVAKTMSDAGRWNEAGDLLRQLMTDVKSCKISASNRDEHDARNTFLRALEANLKLVQQNVRDEDDLHEAMTRQSGSPEPPADPDVWSKPSPPLPSSSKFGATKKGVGAAGPRPREISKSTSSMSTNPADVKPANPTQGILPQNSAGDSFDASAYDAYIVQAVRGTMATNTENTMSLDDIIGMHDVKQVLHEAVTLPLLVPEFFQGLRSPWKAMVLAGPPGTGKTLIARAIASESSSTFFTVSSTDLSSKWRGDSEKIVRLLFELARFYAPSIIFIDEIDTLGGQRGNSGEHEASRRVKSEFLVQMDGSQNKFDSRRVFVLAATNIPWELDEALRRRFEKRIFIPLPDIDARKKLIEKSMEGTPKSDEINYDDLAARTEGFSGADVVSLCRTAAINVLRRYDTKSLRGGELTAAMESLKAELVRNIDFEAALQAVSPSAGPDTMLKCKEWCDSFGAM
  stoichiometry N: 1 MEI-1:MEI-2
